The values below are quoted from earlier work in PMC7851832.

This data set addresses FGFR2 (Homo sapiens) (UniProt P21802).

FGFR2 (Homo sapiens), sequence (P21802 22-821): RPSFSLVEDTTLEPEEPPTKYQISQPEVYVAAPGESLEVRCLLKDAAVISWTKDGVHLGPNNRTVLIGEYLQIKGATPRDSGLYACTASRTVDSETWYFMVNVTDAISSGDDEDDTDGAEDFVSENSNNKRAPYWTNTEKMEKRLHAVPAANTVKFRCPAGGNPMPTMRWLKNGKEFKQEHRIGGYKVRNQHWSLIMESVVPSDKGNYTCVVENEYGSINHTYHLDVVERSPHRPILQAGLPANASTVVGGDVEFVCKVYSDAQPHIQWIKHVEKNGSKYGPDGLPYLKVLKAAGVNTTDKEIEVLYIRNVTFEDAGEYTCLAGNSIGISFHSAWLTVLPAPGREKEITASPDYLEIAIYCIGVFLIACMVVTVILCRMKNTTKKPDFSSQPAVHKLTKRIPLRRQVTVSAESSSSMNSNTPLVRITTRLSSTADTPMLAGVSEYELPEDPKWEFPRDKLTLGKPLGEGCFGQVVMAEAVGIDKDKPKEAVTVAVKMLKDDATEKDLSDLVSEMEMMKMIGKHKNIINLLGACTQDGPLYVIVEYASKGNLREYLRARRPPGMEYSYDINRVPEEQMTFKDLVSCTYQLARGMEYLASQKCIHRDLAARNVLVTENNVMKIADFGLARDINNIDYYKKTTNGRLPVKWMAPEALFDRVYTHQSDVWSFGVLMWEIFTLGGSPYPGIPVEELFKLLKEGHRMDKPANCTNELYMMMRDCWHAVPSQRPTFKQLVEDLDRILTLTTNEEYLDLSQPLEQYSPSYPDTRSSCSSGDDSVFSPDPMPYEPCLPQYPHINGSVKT
FGF1, sequence (P05230 16-155): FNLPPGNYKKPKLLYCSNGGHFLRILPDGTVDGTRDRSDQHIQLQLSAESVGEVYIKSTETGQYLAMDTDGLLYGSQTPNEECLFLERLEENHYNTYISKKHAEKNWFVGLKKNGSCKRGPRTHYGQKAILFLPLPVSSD

FGF1 (from UniProt P05230): the Kd was 300 nM.
